In patent US20130071405A1 (Eli Lilly, published 2013):

Tests used:
[1] = target: T1, hPCSK9 160-181 synthetic peptide (human); assay: binding kinetics to synthetic peptide (method not named in Example 3)
T1 construct: Numbered on complete human PCSK9 including the twenty-eight amino acid signal peptide
T1 peptide: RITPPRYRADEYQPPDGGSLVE

[2] = target: T2, hPCSK9 166-181 synthetic peptide (human); assay: as above
T2 peptide: YRADEYQPPDGGSLVE

[3] = target: T3, hPCSK9 163-174 synthetic peptide (human); assay: as above
T3 peptide: PPRYRADEYQPP

[4] = target: T4, Recombinant full length PCSK9, C-terminal HIS-tagged (HEK 293 stable cell line) (human, UniProt Q8NBP7 31-692); assay: AlphaLISA, inhibition of PCSK9 (1 nM) binding to FLAG-tagged LDLR extracellular domain (1 nM)
T4 construct: also called C-terminal HIS-tagged recombinant human PCSK9; not shown: C-terminal HIS tag

[5] = target: Human PCSK9 (human, UniProt Q8NBP7 31-692); assay: SPR, 37 C, physiological buffer, n=6, Avg ± SD
[6] = target: Cyno PCSK9 (cynomolgus monkey); assay: SPR, 37 C, physiological buffer, n=4, Avg ± SD
[7] = target: Mouse PCSK9 (mouse, UniProt Q80W65 35-694, limits assumed); assay: SPR, 25 C, n=3
[8] = target: Rat PCSK9 (rat, UniProt P59996 31-691, limits assumed); assay: SPR, 25 C, n=2
[9] = target: T1, hPCSK9 160-181 synthetic peptide; assay: binding kinetics to synthetic peptide, reference intact human PCSK9
[10] = target: T5, mature hPCSK9 C-term His (human, UniProt Q8NBP7 29-692); assay: binding kinetics (method not named in Example 3)
T5 construct: also called intact human PCSK9; intact PCSK9
T5 sequence (Q8NBP7 other isoform, or with tags, fused parts or gaps limits assumed): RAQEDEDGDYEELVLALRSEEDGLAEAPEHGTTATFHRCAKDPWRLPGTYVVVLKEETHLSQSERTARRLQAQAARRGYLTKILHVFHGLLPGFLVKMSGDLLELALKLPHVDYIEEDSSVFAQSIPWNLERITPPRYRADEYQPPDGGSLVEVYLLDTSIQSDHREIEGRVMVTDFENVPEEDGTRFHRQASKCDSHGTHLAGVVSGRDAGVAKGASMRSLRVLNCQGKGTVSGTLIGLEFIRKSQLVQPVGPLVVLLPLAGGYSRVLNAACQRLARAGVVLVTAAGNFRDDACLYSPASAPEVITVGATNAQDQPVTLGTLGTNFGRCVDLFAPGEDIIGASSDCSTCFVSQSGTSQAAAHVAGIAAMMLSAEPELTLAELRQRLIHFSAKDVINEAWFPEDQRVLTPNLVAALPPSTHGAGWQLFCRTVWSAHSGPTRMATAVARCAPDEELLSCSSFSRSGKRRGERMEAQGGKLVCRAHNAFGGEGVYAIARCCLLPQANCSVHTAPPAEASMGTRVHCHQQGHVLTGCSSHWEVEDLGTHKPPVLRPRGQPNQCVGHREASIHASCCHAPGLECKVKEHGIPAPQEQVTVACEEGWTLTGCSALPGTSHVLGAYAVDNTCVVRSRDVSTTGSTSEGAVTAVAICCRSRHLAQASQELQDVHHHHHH

Chain of Human PCSK9 (Q8NBP7 31-692 limits assumed): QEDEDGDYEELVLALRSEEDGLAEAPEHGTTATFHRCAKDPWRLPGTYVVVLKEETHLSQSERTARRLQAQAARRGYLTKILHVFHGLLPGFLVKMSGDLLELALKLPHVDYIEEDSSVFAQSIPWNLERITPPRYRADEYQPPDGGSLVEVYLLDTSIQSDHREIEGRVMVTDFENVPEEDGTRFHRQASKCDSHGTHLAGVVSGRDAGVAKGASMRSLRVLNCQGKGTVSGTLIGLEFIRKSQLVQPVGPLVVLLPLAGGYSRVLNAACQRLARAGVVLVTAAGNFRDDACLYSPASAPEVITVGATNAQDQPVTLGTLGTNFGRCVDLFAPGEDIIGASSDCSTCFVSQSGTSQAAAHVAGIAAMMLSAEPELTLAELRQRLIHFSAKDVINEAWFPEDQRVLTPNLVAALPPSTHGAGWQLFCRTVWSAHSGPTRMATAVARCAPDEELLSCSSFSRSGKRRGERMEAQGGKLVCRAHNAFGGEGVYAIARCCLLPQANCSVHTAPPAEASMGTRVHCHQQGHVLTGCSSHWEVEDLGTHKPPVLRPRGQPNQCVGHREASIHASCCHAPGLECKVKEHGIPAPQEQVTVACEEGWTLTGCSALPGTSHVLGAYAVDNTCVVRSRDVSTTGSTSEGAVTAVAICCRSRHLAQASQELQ
Chain of Mouse PCSK9 (Q80W65 35-694 limits assumed): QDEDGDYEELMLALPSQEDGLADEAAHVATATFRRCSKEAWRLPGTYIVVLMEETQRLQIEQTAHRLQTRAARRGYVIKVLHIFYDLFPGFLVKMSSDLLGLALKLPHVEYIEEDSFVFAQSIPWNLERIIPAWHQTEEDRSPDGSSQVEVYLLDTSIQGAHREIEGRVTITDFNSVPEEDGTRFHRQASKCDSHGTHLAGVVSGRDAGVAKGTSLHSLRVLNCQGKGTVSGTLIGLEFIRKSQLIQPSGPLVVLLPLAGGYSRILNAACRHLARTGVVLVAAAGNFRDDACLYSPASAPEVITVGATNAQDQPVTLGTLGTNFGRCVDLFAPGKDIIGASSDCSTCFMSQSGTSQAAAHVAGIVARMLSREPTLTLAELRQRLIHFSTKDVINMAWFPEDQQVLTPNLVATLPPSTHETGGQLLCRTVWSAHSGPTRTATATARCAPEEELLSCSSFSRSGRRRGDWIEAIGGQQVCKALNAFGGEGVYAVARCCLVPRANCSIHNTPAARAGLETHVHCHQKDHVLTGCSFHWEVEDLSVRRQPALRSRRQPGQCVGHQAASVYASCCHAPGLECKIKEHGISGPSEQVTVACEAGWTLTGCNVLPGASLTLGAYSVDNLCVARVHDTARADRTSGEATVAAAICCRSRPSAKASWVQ
T4 sequence (Q8NBP7 31-692 limits assumed): as the sequence (Q8NBP7 31-692 limits assumed) above
Chain of Rat PCSK9 (P59996 31-691 limits assumed): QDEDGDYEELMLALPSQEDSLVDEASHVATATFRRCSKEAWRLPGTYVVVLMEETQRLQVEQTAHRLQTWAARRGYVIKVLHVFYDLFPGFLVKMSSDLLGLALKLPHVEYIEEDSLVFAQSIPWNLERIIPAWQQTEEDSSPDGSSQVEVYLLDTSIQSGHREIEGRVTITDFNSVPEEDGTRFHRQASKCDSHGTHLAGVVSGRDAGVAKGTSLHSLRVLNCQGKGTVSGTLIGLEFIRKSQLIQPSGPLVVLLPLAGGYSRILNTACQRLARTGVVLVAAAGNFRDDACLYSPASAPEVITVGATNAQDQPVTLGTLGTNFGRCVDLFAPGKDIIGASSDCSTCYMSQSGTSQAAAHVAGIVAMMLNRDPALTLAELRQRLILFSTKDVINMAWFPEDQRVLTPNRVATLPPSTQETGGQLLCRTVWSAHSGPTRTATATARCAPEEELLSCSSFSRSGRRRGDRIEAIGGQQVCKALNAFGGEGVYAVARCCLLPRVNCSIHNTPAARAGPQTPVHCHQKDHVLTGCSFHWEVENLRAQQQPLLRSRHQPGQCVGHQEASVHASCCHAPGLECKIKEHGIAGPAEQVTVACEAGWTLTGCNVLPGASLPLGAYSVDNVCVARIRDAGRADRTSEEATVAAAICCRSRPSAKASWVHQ

B1: engineered PCSK9 antibody of Example 1 (antibody, human IgG4 S228P, kappa, F234A L235A, V domains shown)
VH: EVQLVESGGGLVKPGGSLRLSCAASGFPFSKLGMVWVRQAPGKGLEWVSTISSGGGYTYYPDSVKGRFTISRDNAKNSLYLQMNSLRAEDTAVYYCAREGISFQGGTYTYVMDYWGQGTLVTVSS
VL: DIVMTQSPLSLPVTPGEPASISCRSSKSLLHRNGITYSYWYLQKPGQSPQLLIYQLSNLASGVPDRFSGSGSGTDFTLKISRVEAEDVGVYYCYQNLELPLTFGQGTKVEIKR
notes: the controls used are IgG4; also called test PCSK9 antibody
Question: How did the Kd [1] turn out when B1 was run?
Answer: 0.17 nM

Question: And the koff [1]?
Answer: 0.000242 s⁻¹

Question: And the kon [1]?
Answer: 1.45e+06 M⁻¹ s⁻¹

Question: And the Kd [2]?
Answer: 34 nM

Question: And the koff [2]?
Answer: 0.156 s⁻¹

Question: And the kon [2]?
Answer: 4.58e+06 M⁻¹ s⁻¹

Question: What about the Kd [3] of the same binder?
Answer: 3 nM

Question: What about the koff [3] of the same binder?
Answer: 0.00831 s⁻¹

Question: And the kon [3]?
Answer: 2.75e+06 M⁻¹ s⁻¹

Question: What about the IC50 [4] of the same binder?
Answer: ~0.09 nM

Question: And the Kd [5]?
Answer: 11 nM

Question: What about the koff [5] of the same binder?
Answer: 0.0012 s⁻¹

Question: What about the kon [5] of the same binder?
Answer: 120000 M⁻¹ s⁻¹

Question: And the Kd [6]?
Answer: 25 nM

Question: And the koff [6]?
Answer: 0.0025 s⁻¹

Question: What about the kon [6] of the same binder?
Answer: 110000 M⁻¹ s⁻¹

Question: Does B1 bind [7]?
Answer: no binding

Question: Does B1 bind [8]?
Answer: no binding

Question: And the “koff fold difference against intact PCSK9” value [9]?
Answer: ≤ 2 fold

Question: What about the Kd [10] of the same binder?
Answer: 1.8 nM

Question: And the koff [10]?
Answer: 0.00015 s⁻¹

Question: What about the kon [10] of the same binder?
Answer: 86700 M⁻¹ s⁻¹
